Assay: soluble on expression in E. coli; label from the status in PepcDB or PDB records

| Sequence | soluble on expression in E. coli |
| --- | --- |
| PEIAEVVIGVGENAVKIGGEEVLHRHELTFFNPTGFFYDVWDTMDDKALEERCDRVVSYKKFYVGNFLTLDGFAVRCTSGDPKRYREVVKKVASYGKPLILVALDSECMKAALEEVADQRPLMYAATEGNWKEFLKLALEYKVPVTLRAKDLDLLKSMAVTFKQAGVKDIVLDPVTEPLGEGLKGTFERVIQLRRTAIAGQDKDVAYPIMITPIAAWLIEGDDVTKSYWEAVIASIFIVKYGDVMIFRSIDQHVVMPTITLRFNIYTDPRTPVQVEPGLRAINDPGPDDPVFITTNFALTYYTVESDLTSGGIKGWLLVLNTEGLGVEVSVAGGQFTASKVKELIEETKIEEKVNHRYLVIPGLAARLQGAIEDETGWKVLVGPMDSGRIKGWLEKNWP | not soluble |
| PGSEFELGNKGNNILNSNESRLNVNENNILREKFENYARIVFQFNNSRQANGNFDIANEFISILSSANGTRNAQLLESWKILESMKSKDINIVEVGKQYLEQQFLQYTDNLYKKNMNEGLATNVNKIKSFIDTKLKKADKSWKISNLTVINGVPIWALIFYLLRAGLIKEALQVLVENKANIKKVEQSFLTYFKAYASSKDHGLPVEYSTKLHTEYNQHIKSSLDGDPYRLAVYKLIGRCDLSRKNIPAVTLSIEDWLWMHLMLIKEKDAENDPVYERYSLEDFQNIIISYGPSRFSNYYLQTLLLSGLYGLAIDYTYTFSEMDAVHLAIGLASLKLFKIDSSTRLTKKPKRDIRFANILANYTKSFRYSDPRVAVEYLVLITLNEGPTDVELCHEALRELVLETKEFTVLLGKIGRDGARIPGVIEERQPLLHVRDEKEFLHTITEQAARRADEDGRIYDSILLYQLAEEYDIVITLVNSLLSDTLSASDLDQPLVGPDDNSETNPVLLARRMASIYFDNAGISRQIHVKNKEICMLLLNISSIRELYFNKQWQETLSQMELLDLLPFSDELSARKKAQDFSNLDDNIVKNIPNLLIITLSCISNMIHILNESKYQSSTKGQQIDSLKNVARQCMIYAGMIQYRMPRETYSTLINIDVSL | soluble |
| PISFGLSVRKSLAKGFSVETGLTYTLLSSDAKFADSDQKTEQKLHYLGIPLKANWNFLDKKLFTLYVSGGGMIEKCVYGKLGTEKETVKPLQFSVSGAVGAQFNATKRVGIYVEPGVAYFFDDGSDVQTIRKENPFNFNIQAGIRLTY | not soluble |
| PKALIVYGSTTGNTEYTAETIARELADAGYEVDSRDAASVEAGGLFEGFDLVLLGCSTWNDDSIELQDDFIPLFDSLEETGAQGRKVACFGCGDSSYEYFCGAVDAIEEKLKNLGAEIVQDGLRIDGDPRAARDDIVGWAHDVRGAI | soluble |
| PKTQRGIYHNLKESEYVASNTDVTFFFSSELYLNKFLDGYQEYRKKFNKKIERVAVTPWNMDMLADITFYSEVEKRGFHAWLKGDNATWREVHVYALRIMTKPNTLDWSRIQKPRLRERRKSM | soluble |
| PKWQAVRAEYQRQRDPLHQFASQQNPEAQLQALQDKIRANPQNSEQWALLGEYYLWQNDYSNSLLAYRQALQLRGENAELYAALATVLYYQASQHMTAQTRAMIDKALALDSNEITALMLLASDAFMQANYAQAIELWQKVMDLNSPRINRTQLVESINMAKLLQRRSDLEHHHHHH | soluble |
| PLAIVTSPEIKSPGDLKGKRLMLSEVNIDSANFTHMLQGFGLSMKDIQILSTSFNIHDFIDGKVDAYSIFLTNELFDLQRLGVRYNILDPSNYGVELYDENLFGAKEFVLKNPTLVKRFIDASNRGWQYALDHPEEIVDLILERYNTQ | not soluble |
| PLGSEEEEEDAGLVAEAEAVAAGWMLDFLCLSLCRAFRDGRSEDFRRTRNSAEAIIHGLSSLTACQLRTIYICQFLTRIAAGKTLDAQFENDERITPLESALMIWGSIEKEHDKLHEEIQNLIKIQAIAVCMENGNFKEAEEVFERIFGDPNSHMPFKSKLLMIISQKDTFHSFFQHFSYNHMMEKIKSYVNYVLSEKSSTFLMKAAAKVVESKR | soluble |
| PPCDSIVVAYYFCGEPIPYETLVRGRAVTLGQFKELLTKKGSYRYYFKKVSDEFDCGVVFEEVREDEAILPVFEEKIIGKVEKVD | soluble |
| PQPSRPRKGSLGFGPRKRSTSETPRFNSWPSDDGQPGVQGFAGYKAGMTHVVLVNDEPNSPREGMEETVPVTVIETPPMRAVALRAYEDTPYGQRPLTEVWTDEFHSELDRTLDVPEDHDPDAAEEQIRDAHEAGDLGDLRLITHTVPDAVPSVPKKKPDVMETRVGGGSVSDRLDHALDIVEDGGEHAMNDIFRAGEYADVAGVTKGKGTQGPVKRWGVQKRKGKHARQGWRRRIGNLGPWNPSRVRSTVPQQGQTGYHQRTELNKRLIDIGEGDEPTVDGGFVNYGEVDGPYTLVKGSVPGPDKRLVRFRPAVRPNDQPRLDPEVRYVSNESNQG | soluble |
| PSPGGQMHAGISSFQQSNSSGTYGPQMSQYGPQGNYSRPPAYSGVPSASYSGPGPGMGISANNQMHGQGPSQPCGAVPLGRMPSAGMQNRPFPGNMSSMTPSSPGMSQQGGPGMGPPMPTVNRKAQEAAAAVMQAAANSAQSRQGSFPGMNQSGLMASSSPYSQPMNNSSSLMNTQAPPYSMAPAMVNSSAASVGLADMMSPGESKLPLPLKADGKEEGTPQPESKSKDSYSSQGISQPPTPGNLPVPSPMSPSSASISSFHGDESDSISSPGWPKTPSSPKSSSSTTTGEKITKVYELGNEPERKLWVDRYLTFMEERGSPVSSLPAVGKKPLDLFRLYVCVKEIGGLAQVNKNKKWRELATNLNVGTSSSAASSLKKQYIQYLFAFECKIERGEEPPPEVFSTGDTKKQPKLQPPSPANSGSLQGPQTPQSTGSNSMAEVPGDLKPPTPASTPHGQMTPMQGGRSSTISVHDPFSDVSDSSFPKRNSMTPNAPYQQGMSMPDVMGRMPYEPNKDPFGGMRKVPGSSEPFMTQGQMPNSSMQDMYNQSPSGAMSNLGMGQRQQFPYGASYDRRHEPYGQQYPGQGPPSGQPPYGGHQPGLYPQQPNYKRHMDGMYGPPAKRHEGDMYNMQYSSQQQEMYNQYGGSYSGPDRRPIQGQYPYPYSRERMQGPGQIQTHGIPLQMMGGPLQSSSSEGPQQNMWAARNDMPYPYQNRQGPGGPTQAPPYPGMNRTDDMMVPDQRINHESQWPSHVSQRQPYMSSSASMQPITRPPQPSYQTPPSLPNHISRAPSPASFQRSLENRMSPSKSPFLPSMKMQKVMPTVPTSQVTGPPPQPPPIRREITFPPGSVEASQPVLKQRRKITSKDIVTPEAWRVMMSLKSGLLAESTWALDTINILLYDDSTVATFNLSQLSGFLELLVEYFRKCLIDIFGILMEYEVGDPSQKALDHNAARKDDSQSLADDSGKEEEDAECIDDDEEDEEDEEEDSEKTESDEKSSIALTAPDAAADPKEKPKQASKFDKLPIKIVKKNNLFVVDRSDKLGRVQEFNSGLLHWQLGGGDTTEHIQTHFESKMEIPPRRRPPPPLSSAGRKKEQEGKGDSEEQQEKSIIATIDDVLSARPGALPEDANPGPQTESSKFPFGIQQAKSHRNIKLLEDEPRSRDETPLCTIAHWQDSLAKRCICVSNIVRSLSFVPGNDAEMSKHPGLVLILGKLILLHHEHPERKRAPQTYEKEEDEDKGVACSKDEWWWDCLEVLRDNTLVTLANISGQLDLSAYTESICLPILDGLLHWMVCPSAEAQDPFPTVGPNSVLSPQRLVLETLCKLSIQDNNVDLILATPPFSRQEKFYATLVRYVGDRKNPVCREMSMALLSNLAQGDALAARAIAVQKGSIGNLISFLEDGVTMAQYQQSQHNLMHMQPPPLEPPSVDMMCRAAKALLAMARVDENRSEFLLHEGRLLDISISAVLNSLVASVICDVLFQIGQL | soluble |
| PSSNGPLEGTRGKLKNKPRDRGTSPPQRAVEEFDDGEKVHLKIDPSVPNGRFHPRFDGQTGTVEGKQGDAYKVDIVDGGKEKTIIVTAAHLRRQE | soluble |
| PTIFEERHLKYISQLGKGNFGSVELCRYDPLGDNTGALVAVKQLQHSGPDQQRDFQREIQILKALHSDFIVKYRGVSYGPGRPELRLVMEYLPSGCLRDFLQRHRARLDASRLLLYSSQICKGMEYLGSRRCVHRDLAARNILVESEAHVKIADFGLAKLLPLDKDYYVVREPGQSPIFWYAPESLSDNIFSRQSDVWSFGVVLYELFTYCDKSCSPSAEFLRMMGCERDVPALCRLLELLEEGQRLPAPPACPAEVHELMKLCWAPSPQDRPSFSALGPQLDMLWSGSR | soluble |
